What was measured:
[1] = target: TLR4/MD2 complex (Homo sapiens, UniProt O00206+Q9Y6Y9); settings: SPR, literature; read-out: KD, binding to TLR4/MD2 complex; cited from earlier work
[2] = target: T1, MD2 (Homo sapiens, UniProt Q9Y6Y9); settings: literature; read-out: KD, binding to MD2; cited from earlier work
T1 sequence (Q9Y6Y9 19-160): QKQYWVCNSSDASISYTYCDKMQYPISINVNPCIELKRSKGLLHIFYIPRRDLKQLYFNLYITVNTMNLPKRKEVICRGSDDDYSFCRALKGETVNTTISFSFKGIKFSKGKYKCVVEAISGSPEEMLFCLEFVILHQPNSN

[3] = target: TLR4 (Homo sapiens, UniProt O00206); settings: literature; cited from earlier work
[4] = tested on: rmCIRP-induced TNF-α production, RAW 264.7 cells; test: Polymyxin B on rmCIRP-induced TNF-α production in RAW 264.7 cells; type: cell-based, murine; settings: PMB 120 U/ml, rmCIRP 1.5 μg/ml, 8 hours
Method: (§1) Murine macrophage-like RAW 264.7 cells were obtained from ATCC (American Type Culture Collection, Manassas, Va.), and were grown in Dulbecco's Modified Eagle's Medium (DMEM, Life Technologies, Grand Island, N.Y.) containing 10% (vol/vol) FBS (heat-inactivated at 56° C. for 30 min), 100 U/ml penicillin, 100 μg/ml streptomycin and 2 mM glutamine. Cells were re-suspended in medium and incubated in 6 or 48-well tissue-culture plates overnight in a humidified incubator (37° C., 5% CO2). In the experiments, cell monolayers were stimulated with or without recombinant CIRP at various indicated concentrations and for various indicated times. The cell-free supernatants were assayed for TNF-α by ELISA or for HMGB1 by western blot analysis.
(§2) To conduct this experiment, rmCIRP (1.5 μg/ml or LPS (10 ng/ml) was treated with polymyxin B (PMB, 120 U/ml) or heated at 80° C. for 30 min before being added to RAW 264.7 cells for 8 hours. *P<0.05 vs. rmCIRP; #P<0.05 vs. LPS.

[5] = tested on: LPS-induced TNF-α release, RAW 264.7 cells; test: Polymyxin B on LPS-induced TNF-α release from RAW 264.7 cells; type: cell-based, murine; settings: PMB 120 U/ml, LPS 10 ng/ml, 8 hours
Method: as §1, §2

[6] = target: T2, TLR2 (Homo sapiens, UniProt O60603); test: SPR binding to TLR2
T2 construct: Glu21-Leu590); 10-His (C); purchased R&D Systems; host or cells: mouse myeloma NS0 cell line
Method: (§3) Analysis of protein-protein and peptide-protein interactions were conducted using the BIAcore T200 instrument (GE Healthcare). Binding reactions were performed in 1×PBS buffer containing 0.01% Tween-20 (pH 7.4). The CM5 dextran chip (flow cell-2) was first activated by injection with 89 μl of 0.1 M […] and 0.1 M N-hydroxysuccinimide. An aliquot of 200 μl of 5 μg/ml of the ligand diluted in 10 mM sodium acetate (pH 4.5) was injected into flow cell-2 of the CM5 chip for immobilization. Next, 135 μl of 1 M ethanolamine (pH 8.2) was then injected to block the remaining active sites. The flow cell-1 without coating with the ligand was used as a control to evaluate nonspecific binding. […] To evaluate the binding, the analyte (ranging from 62.5 nM to 1.0 μM for kinetics analysis or 0.5 μM for yes/no binding analysis) was injected into flow cell-1 and -2 and the association of analyte and ligand was recorded respectively by surface plasmon resonance. […] Data were analyzed by the BIAcore T200 Evaluation Software. […]
(§4) Surface plasmon resonance (SPR) analysis was utilized to determine the physical interaction and binding affinity between rhCIRP and pattern-recognition receptors and MD2. […] The region of CIRP that binds to MD2 was determined via the synthesis of 32 oligopeptides (15-mer) covering the entire human CIRP sequence. […]

[7] = target: T3, rhMD2 (Homo sapiens, UniProt Q9Y6Y9); test: SPR binding to immobilized rhMD2; settings: kinetic analysis, 25° C., read-out: apparent KD, binding to rhMD2
T3 construct: Glu17-Asn160); 10-His (C); purchased R&D Systems; host or cells: E. coli
T3 sequence (Q9Y6Y9 17-160): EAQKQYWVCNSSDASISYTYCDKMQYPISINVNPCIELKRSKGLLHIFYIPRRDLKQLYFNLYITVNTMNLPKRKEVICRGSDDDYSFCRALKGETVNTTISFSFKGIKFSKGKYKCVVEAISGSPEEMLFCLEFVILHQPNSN
Method: Analysis of protein-protein and peptide-protein interactions were conducted using the BIAcore T200 instrument (GE Healthcare). Binding reactions were performed in 1×PBS buffer containing 0.01% Tween-20 (pH 7.4). The CM5 dextran chip (flow cell-2) was first activated by injection with 89 μl of 0.1 M […] and 0.1 M N-hydroxysuccinimide. An aliquot of 200 μl of 5 μg/ml of the ligand diluted in 10 mM sodium acetate (pH 4.5) was injected into flow cell-2 of the CM5 chip for immobilization. Next, 135 μl of 1 M ethanolamine (pH 8.2) was then injected to block the remaining active sites. The flow cell-1 without coating with the ligand was used as a control to evaluate nonspecific binding. The binding analyses were performed at flow rate of 30 μl/min at 25° C. To evaluate the binding, the analyte (ranging from 62.5 nM to 1.0 μM for kinetics analysis or 0.5 μM for yes/no binding analysis) was injected into flow cell-1 and -2 and the association of analyte and ligand was recorded respectively by surface plasmon resonance. The signal from the blank channel (flow cell-1) was subtracted from the channel (flow-cell 2) coated with the ligand. Data were analyzed by the BIAcore T200 Evaluation Software. For all samples, a blank injection with buffer alone was subtracted from the resulting reaction surface data. Data were globally fitted to the Lagmuir model for a 1:1 binding.
Surface plasmon resonance (SPR) analysis was utilized to determine the physical interaction and binding affinity between rhCIRP and pattern-recognition receptors and MD2. […] The sensorgrams show association and dissociation of analyte at the indicated concentration passed over to the immobilized ligand on the sensor chip, indicated as analyte/ligand on top of each diagram. […] The region of CIRP that binds to MD2 was determined via the synthesis of 32 oligopeptides (15-mer) covering the entire human CIRP sequence. The oligopeptides were passed over immobilized rhMD2 on the BIAcore instrument, followed by subsequent performance of a series of SPR analyses. Three oligopeptides with high binding affinity were indicated. […] Three oligopeptides, aa 101-115, 106-120 (C22), and 111-125 (C23) bound to rhMD2 with high affinity (FIG. 14 and FIG. 19).

[8] = tested on: THP-1 cells; test: TNF-α release from differentiated THP-1 cells stimulated with recombinant proteins; type: cell-based, human; settings: 4 h
Method: As with the murine model, the stimulation of TNF-α, release by rCIRP in a human model was studied. […] These experiments were conducted by incubating differentiated human THP-1 cells with rhCIRP or rmCIRP at the indicated concentrations for 4 h. *P<0.05 vs. no CIRP. Similarly, human PBMC were incubated with the indicated concentrations of rhCIRP for 8 h. *P<0.05 vs. no rhCIRP. Thus, stimulation of cytokine release by CIRP was not attributable to LPS contamination. Furthermore, CIRP-induced cytokine activation was conserved between rodents and humans.
rmCIRP induced TNF-α and HMGB1 release in macrophages (FIGS. 10a, b and c). It was reported that HMGB1 can also stimulate TNF-α release (Andersson, U., et al. High mobility group 1 protein (HMG-1) stimulates proinflammatory cytokine synthesis in human monocytes. J. Exp. Med. 192, 565-570 (2000)). The relationship between CIRP and HMGB1 on stimulating TNF-α release was analyzed by applying respective neutralizing antibodies. […] After 4 h, TNF-α levels in conditioned medium (CM) were assayed by ELISA. Data are mean±s.e.m. from three independent experiments. *P<0.05 vs. rmCIRP+ control IgG. In FIG. 16D, RAW 264.7 cells were pre-incubated with rabbit control IgG or anti-CIRP antibodies at indicated dilutions of 1 mg/ml for 20 min before adding 1.0 μg/ml rmCIRP. After 4 h, TNF-α levels in CM were assayed by ELISA. Data are mean±s.e.m. from three independent experiments. *P<0.05 vs. rmCIRP+ control IgG. THP-1 cells were incubated with 4 μg/ml of anti-CIRP antibodies, anti-HMGB1 antibodies, or non-immunized control IgG for 1 h prior to adding rmCIRP (0.3 μg/ml), rmHMGB1 (0.3 μg/ml), or rmCIRP/rmHMGB1 (0.3 μg/ml, 0.3 μg/ml) for 8 h. *P<0.05 vs. rmCIRP; #P<0.05 vs. rmHMGB1. […] Furthermore, rmCIRP, rmHMGB1, and rmCIRP plus rmHMGB1 induced TNF-α levels of 0.8, 0.6, and 1.6 ng/ml, respectively. […] TNF-α levels in all collected CM were assayed by ELISA. Data are mean±s.e.m. from three or four independent experiments.
Murine macrophage-like RAW 264.7 cells and human monocyte THP-1 cells were obtained from ATCC (Manassas, Va.). […]

[9] = target: T4, RAGE (Homo sapiens, UniProt Q15109); test: SPR binding to RAGE
T4 construct: Ala23-Ala344); 6-His (C); purchased Biovision; host or cells: human HEK293 cells
Method: as §3, §4

TLR4/MD2 complex, sequence (O00206 24-631 limits assumed, one chain of several): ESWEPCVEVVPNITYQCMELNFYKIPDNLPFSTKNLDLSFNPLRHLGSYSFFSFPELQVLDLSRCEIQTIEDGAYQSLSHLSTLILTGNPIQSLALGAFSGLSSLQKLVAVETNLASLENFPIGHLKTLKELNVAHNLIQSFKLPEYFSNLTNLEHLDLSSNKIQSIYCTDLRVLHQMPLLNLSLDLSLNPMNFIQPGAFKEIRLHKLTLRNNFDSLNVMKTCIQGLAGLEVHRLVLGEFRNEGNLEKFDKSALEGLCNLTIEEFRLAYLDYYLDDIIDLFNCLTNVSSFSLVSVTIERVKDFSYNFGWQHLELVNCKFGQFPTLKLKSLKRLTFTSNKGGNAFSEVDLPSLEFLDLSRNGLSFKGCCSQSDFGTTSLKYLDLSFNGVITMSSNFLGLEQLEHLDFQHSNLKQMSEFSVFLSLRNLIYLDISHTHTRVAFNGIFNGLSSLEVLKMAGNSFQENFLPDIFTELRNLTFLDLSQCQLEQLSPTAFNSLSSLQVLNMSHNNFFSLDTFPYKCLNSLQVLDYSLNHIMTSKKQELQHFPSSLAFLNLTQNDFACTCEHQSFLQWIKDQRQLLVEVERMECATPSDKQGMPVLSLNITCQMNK
TLR4, sequence (O00206 24-631 limits assumed, species assumed): as the sequence (O00206 24-631 limits assumed, one chain of several) above
T4 sequence (Q15109 23-344): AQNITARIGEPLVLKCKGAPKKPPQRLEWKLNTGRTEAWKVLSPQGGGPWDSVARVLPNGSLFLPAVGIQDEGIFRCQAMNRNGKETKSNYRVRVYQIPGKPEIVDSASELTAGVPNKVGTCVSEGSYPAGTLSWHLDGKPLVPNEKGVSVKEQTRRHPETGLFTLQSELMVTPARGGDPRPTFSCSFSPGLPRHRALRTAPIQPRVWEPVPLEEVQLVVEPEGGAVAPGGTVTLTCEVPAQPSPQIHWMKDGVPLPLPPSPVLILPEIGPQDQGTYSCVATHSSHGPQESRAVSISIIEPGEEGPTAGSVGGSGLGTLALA
T2 sequence (O60603 21-590): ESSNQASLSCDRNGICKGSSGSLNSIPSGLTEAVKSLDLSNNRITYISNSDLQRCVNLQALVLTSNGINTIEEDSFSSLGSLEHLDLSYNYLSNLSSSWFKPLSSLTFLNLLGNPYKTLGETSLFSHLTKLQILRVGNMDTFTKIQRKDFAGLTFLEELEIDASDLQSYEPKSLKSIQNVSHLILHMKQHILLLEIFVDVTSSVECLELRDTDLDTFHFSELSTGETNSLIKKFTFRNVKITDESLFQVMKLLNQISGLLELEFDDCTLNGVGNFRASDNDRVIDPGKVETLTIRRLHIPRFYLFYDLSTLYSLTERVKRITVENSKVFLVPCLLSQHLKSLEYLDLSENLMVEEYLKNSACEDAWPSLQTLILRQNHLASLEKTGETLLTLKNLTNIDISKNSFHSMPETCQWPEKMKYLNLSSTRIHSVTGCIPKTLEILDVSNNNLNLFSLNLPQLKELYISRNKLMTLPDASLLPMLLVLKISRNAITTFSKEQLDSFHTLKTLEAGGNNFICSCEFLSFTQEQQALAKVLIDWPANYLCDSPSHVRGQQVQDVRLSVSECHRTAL

Molecule: HMGB1: high mobility group box 1 protein, proinflammatory cytokine; literature binding data
- Kd [1]: 1500 nM
- Kd [2]: 8 nM
- binding to TLR4 (in words) [3]: did not bind to TLR4

Molecule: Polymyxin B
- effect on rmCIRP-induced TNF-α production [4]: did not interfere
- inhibition of LPS-induced TNF-α release [5]: 84%

B1: rhCIRP: recombinant human CIRP, full length, C-terminal DDK tag, from HEK293 cells (Origene) (protein)
chain: MASDEGKLFVGGLSFDTNEQSLEQVFSKYGQISEVVVVKDRETQRSRGFGFVTFENIDDAKDAMMAMNGKSVDGRQIRVDQAGKSSDNRSRGYRGGSAGGRGFFRGGRGRGRGFSRGGGDRGYGGNRFESRSGGYGGSRDYYSSRSQSGGYSDRSSGGSYRDSYDSYATHNE
modifications: left off: small tags and cut ends
- KD with TLR2 [6]: in the nM range
- Kd [7]: 302 nM
- activity in stimulating TNF-α release from differentiated THP-1 cells [8]: comparable activity to rmCIRP
- KD with RAGE [9]: in the nM range
